Assay results reported in patent US11471509B2, “Compositions and methods relating to myomaker-induced muscle cell fusion” (The Board of Regents of the University of Texas System, priority 2013, dated 2022).

B1: Tmem8b: closest relative of Myomaker/Tmem8c, not muscle-specific (protein, UniProt B1AWJ5 1-472, looked up)
Transmembrane protein 8B: MNMPQSLGTQPLPPEPPSLGTPIEGSGAIAPTEHCWPVRPTLRNELDTFSVHFYIFFGPSVALPPERPAVFALRLLPVLDSGGVLSLELQLNASSLRQENVTVFGCLTHEVPLSLGDAAVTCSKESLAGFLLSVSATSRVARLRIPFPQTGTWFLTLRSLCGVGPRFVRCRNATAEVRLRTFLSPCVDDCGPYGQCKLLRTHNYLYAACECKAGWRGWGCTDSADALTYGFQLLSTLLLCLSNLMFLPPVVLAIRSRYVLEAAVYTFTMFFSTFYHACDQPGIVVFCIMDYDVLQFCDFLGSLMSVWVTVIAMARLQPVIKQVLYLLGAMLLSMALQLDRHGLWNLLGPSLFALGILATAWTVRSVRRRHCYPPTWRRWLFYLCPGSLIAGSAVLLYAFVETRDNYFYIHSIWHMLIAGSVGFLLPPRAKTDRRVPSGARARGCGYQLCINEQEELGLVGPGGTTVSSICVS
B2: Myomaker: muscle-specific membrane protein of 221 residues, expressed from pBabe-X retrovirus (protein, UniProt Q9D1N4 1-221, looked up)
Protein myomaker: MGTVVAKLLLPTLSSLAFLPTVSIATKRRFYMEAMVYLFTMFFVAFSHACDGPGLSVLCFMRRDILEYFSIYGTALSMWVSLMALADFDEPQRSTFTMLGVLTIAVRTFHDRWGYGVYSGPIGTATLIIAVKWLKKMKEKKGLYPDKSIYTQQIGPGLCFGALALMLRFFFEEWDYTYVHSFYHCALAMSFVLLLPKVNKKAGNAGAPAKLTFSTLCCTCV

Experiments:
C2C12 myoblasts = assay: Retroviral over-expression in C2C12 cells, myoblast fusion; type: cell-based; details: 4 days of differentiation
[1] = tested on: 10T1/2 fibroblasts mixed with C2C12 cells; assay: Cell mixing: infected 10T1/2 fibroblasts with C2C12 myoblasts; type: cell-based
Procedure: WT myoblasts were mixed with either Myomaker+/− or Myomaker−/− myoblasts at equal ratios (approximately 1×10^5 cells per genotype), plated on a well of a laminin coated 12-well plate, and induced to differentiate the next day. 10T1/2 fibroblasts were infected with either GFP- and empty-retrovirus or GFP- and Myomaker-retrovirus for 18 h. After infection, cells were washed multiple times and then trypsinized, and mixed with C2C12 myoblasts at a 1:1 ratio (1×10^5 of each cell type) and plated on one well of a 6 well plate in differentiation media. GFP and myosin expression was analyzed 4 days after differentiation. […]
Each histological analysis of embryonic skeletal muscle was performed on four samples per genotype. The differentiation index was calculated as the percentage of nuclei in myosin-positive cells. The fusion index was calculated as the percentage of nuclei contained in myosin-positive myotubes. […] To quantitate fusion between WT myoblasts and either Myomaker+/− or Myomaker−/− myoblasts, the inventors calculated the percentage of LacZ+ myotubes containing ≥3 nuclei. To quantitate fusion between fibroblasts and myoblasts, the inventors calculated the percentage of GFP+ myosin+ cells or the percentage of BrdU+ myotube nuclei. For each quantitation, at least 3 independent experiments were performed in duplicate and at least 6 random fields were imaged per sample. […]

Row | Molecule | myoblast fusion after forced expression (C2C12 myoblasts) | fusion of infected fibroblasts with C2C12 cells ([1]; 10T1/2 fibroblasts infected with GFP and Myomaker virus, mixed 1:1 with C2C12, 4 days differentiation) | fusion of fibroblasts in the absence of myoblasts ([1]; fibroblasts expressing Myomaker, no myoblasts)
1 | B1 | did not promote fusion | – | –
2 | B2 | dramatic increase in fusion | robustly fused with C2C12 cells | not sufficient to induce fusion of fibroblasts
